In article PMC10890041:

Molecular target: B8(RH)4 ligand: eightfold polymerized B domain from the native Protein A, C-terminally fused with th
Assay: static batch adsorption on an affinity membrane; Protein A ligand coupled by NHS/EDC (protocol I) to ALA-functionalized ALA@Au_PES200 membrane (6 mm); Trastuzumab 0-0.5 mg/mL in PBS pH 7.4, 1 h, 25 °C, 1000 rpm; supernatant UV-vis at 280 nm, ligand load by direct BCA

## Trastuzumab (antibody)
  stoichiometry N (antibody per Protein A ligand): 3
